Laboratory results published in paper doi:10.1101/2022.06.01.494241.

Biological target: mLight (rat)
Conditions: scale: % ΔF/Fo

[D-Ala^2, N-MePhe^4, Gly-ol]-enkephalin (peptide)
sensor fluorescence response (ΔF/Fo) in HEK293 cells, 500 nM to 100 μM DAMGO: 9.06
